We go through 1 substance from paper PMC9375095.

In this experiment the target is E-cadherin (human (endogenous in MCF7, HaCaT and FFPE human tissue)). Briefly: MolBoolean (proximity assay with antibody-DNA conjugates); FFPE human tissue sections after deparaffinisation and antigen retrieval; secondary proximity probes; percentage of RCPs in each category per frame.
E-cadherin (human (endogenous in MCF7, HaCaT and FFPE human tissue)), sequence (P12830 23-882): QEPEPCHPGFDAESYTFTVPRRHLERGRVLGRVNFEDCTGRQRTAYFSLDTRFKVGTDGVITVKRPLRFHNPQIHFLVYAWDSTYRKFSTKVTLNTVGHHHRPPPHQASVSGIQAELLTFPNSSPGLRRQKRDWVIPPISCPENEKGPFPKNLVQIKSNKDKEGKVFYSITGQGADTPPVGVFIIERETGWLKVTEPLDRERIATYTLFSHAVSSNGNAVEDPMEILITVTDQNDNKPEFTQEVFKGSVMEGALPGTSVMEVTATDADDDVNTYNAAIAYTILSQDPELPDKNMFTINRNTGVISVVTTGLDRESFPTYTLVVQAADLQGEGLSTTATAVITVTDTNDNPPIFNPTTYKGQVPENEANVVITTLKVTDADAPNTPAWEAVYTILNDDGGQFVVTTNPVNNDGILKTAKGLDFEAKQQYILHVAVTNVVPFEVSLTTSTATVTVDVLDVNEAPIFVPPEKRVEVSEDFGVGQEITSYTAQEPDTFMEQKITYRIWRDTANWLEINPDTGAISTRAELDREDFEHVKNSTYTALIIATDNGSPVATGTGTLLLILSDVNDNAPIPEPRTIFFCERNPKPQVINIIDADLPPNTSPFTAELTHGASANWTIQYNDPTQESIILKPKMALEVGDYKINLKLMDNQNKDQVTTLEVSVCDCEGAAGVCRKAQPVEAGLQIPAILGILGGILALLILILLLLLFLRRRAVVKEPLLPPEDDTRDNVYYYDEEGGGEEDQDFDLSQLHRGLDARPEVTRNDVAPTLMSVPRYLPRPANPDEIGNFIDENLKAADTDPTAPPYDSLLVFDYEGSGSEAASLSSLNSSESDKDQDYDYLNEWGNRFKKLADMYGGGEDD

“β-catenin (from UniProt P35222 1-781) (natural protein)” came in with a percent of the detected signal per image from complexes of 50%.
